Kd, koff and kon data for 4 substances are collected here from paper PMC4752726.

Common to all, as to assay: BLI
(In general: In BLI a coated tip is dipped into the sample, and binding shifts an interference pattern.)

In assay [1] the target is C-terminally biotinylated FcγRIIIa made from FcγRIIIa-ST-H6 by sortase-mediated ligation (human) (UniProt P08637).
The target in assay [2] is GlcNAc-IgG1 Fc glycoform (GlcNAc-Fc) (human).
Assay [3] deals with High mannose IgG1 Fc (HM-Fc), di-glycosylated form (human).
In assay [4] the target is Man5-IgG1 Fc glycoform (Man5-Fc) (human).

Turning to “High mannose IgG1 Fc (HM-Fc), di-glycosylated form (domain or fragment)”, in assay [1], the dissociation constant (Kd) (usually the concentration at which binding is half-saturated) was determined as 26.4 nM and the koff (usually the rate constant with which the complex falls apart) is 0.0079 s⁻¹.
“soluble domain of FcγRIIIa with a C-terminal histidine tag (FcγRIIIa-H6) (receptor)”: in assay [2], the Kd was found to be 1120 nM; the koff worked out at 0.14 s⁻¹; the association rate constant (kon) (as a rule, a measure of how fast the partners come together) is 120000 M⁻¹ s⁻¹. In assay [3], this substance showed a Kd of 27.7 nM, a koff of 0.0054 s⁻¹ and a kon of 190000 M⁻¹ s⁻¹. Besides, in assay [4], the Kd came out at 31.8 nM, the koff is 0.0051 s⁻¹ and the kon was determined as 160000 M⁻¹ s⁻¹.
In assay [1], “GlcNAc-IgG1 Fc glycoform (GlcNAc-Fc) (domain or fragment)” gave a dissociation constant Kd of 995 nM and a koff of 0.161 s⁻¹.
Take “Man5-IgG1 Fc glycoform (Man5-Fc) (domain or fragment)”: the Kd in assay [1] is 32.8 nM.
